Series [1] concerns the target Recombinant human PDL1 protein (BioVision/7429-50) (human) (UniProt Q9NZQ7). Kind of series: sandwich ELISA: PDL1 captured by antibody 28-8, detected with antibody-coated PID particles, before lyophilizing. (In general: ELISA stands for enzyme-linked immunosorbent assay.)
Series [2] has the same target. In words: sandwich ELISA: PDL1 captured by antibody 28-8, detected with antibody-coated PID particles, after lyophilizing.
For series [3], the target named is Recombinant human HER2 protein (E27-11G-10/Signal Chem) (human) (UniProt P04626). Kind of series: sandwich ELISA: HER2 captured by antibody 6C2, detected with 0.67 nM antibody-coated PID-T particles, after lyophilizing.
The target is the same in series [4]. Kind of series: sandwich ELISA: HER2 captured by antibody 6C2, detected with 0.67 nM antibody-coated PID-T particles, before lyophilizing.
In series [5] the test system is rabbit IgG (anti-PD-L1 rabbit monoclonal antibody clone SP142) (Oryctolagus cuniculus). As to conditions: 5' SH (reduced disulfide), coupled to maleimide-PEG nanoparticle; secondary staining of SP142 rabbit mAb on NCI-H446 section; 0.05 nM aptamer-nanoparticle, PBS 1% BSA, RT 3 h.

This passage reports Fluorescence intensity (PFU), before lyophilizing, Fluorescence intensity (PFU), after lyophilizing and binding (bright spots per cell) results from US20220107306A1.

UniProt Q9NZQ7, sequence (Q9NZQ7 19-238 limits assumed): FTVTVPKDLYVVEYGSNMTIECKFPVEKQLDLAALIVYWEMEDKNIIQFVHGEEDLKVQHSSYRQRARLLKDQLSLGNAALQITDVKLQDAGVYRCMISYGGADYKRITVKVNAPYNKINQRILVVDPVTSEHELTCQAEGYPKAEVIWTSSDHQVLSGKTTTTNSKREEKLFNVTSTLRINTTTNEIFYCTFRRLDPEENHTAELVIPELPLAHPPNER

In the case of “anti-PDL1-recombinant antibody (clone E1L3N/Cell Signaling Technology), bound to the surface of PID-P”, in series [1], the Fluorescence intensity (PFU), before lyophilizing came to 17000 PFU. The Fluorescence intensity (PFU), after lyophilizing in series [2] came to 5500 PFU. For the molecule “anti-HER2-whole antibody (Abcam, product code EP1045Y), bound to the surface of PID-T”, the Fluorescence intensity (PFU), after lyophilizing in series [3] turned out to be 15000 PFU. Moreover, in series [4], the Fluorescence intensity (PFU), before lyophilizing came out at 33000 PFU.

“GGGAGAAUUCCGACCAGAAGUUCGAUACGCCGUGGGGUGACGUUGGCUACCCUUUCCUCUCUCCUCCUUCUUCU [rabbit IgG RNA aptamer (74 mer)]”: the binding (bright spots per cell) in series [5] came to 605. As for “anti-HER2-Fab antibody prepared from the anti-HER2-whole antibody (Abcam EP1045Y), bound to the surface of PID-T”, the Fluorescence intensity (PFU), after lyophilizing in series [3] was 18000 PFU. In addition, the Fluorescence intensity (PFU), before lyophilizing in series [4] came to 41000 PFU.

B1: anti-HER2-VHH antibody (SH group-containing VHH antibody that recognizes HER2 antigen), bound to the surface of PID-T (VHH)
VHH: EVQLVESGGGLVQAGGSLRLSCAASGITFSINTMGWYRQAPGKQRELVALISSIGDTYYADSVKGRFTISRDNAKNTVYLQMNSLKPEDTAVYYCKRFRTAQGTDYWGQGTQVTVSS
modifications: C-terminal cysteine of the linker reduced with DTT to a free SH group and coupled to the maleimide group of TAMRA-encapsulating silica nanoparticles (PID-T)
As to B1, the Fluorescence intensity (PFU), after lyophilizing in series [3] was determined as 49000 PFU. For the same molecule, in series [4], the Fluorescence intensity (PFU), before lyophilizing was 51000 PFU.
